“And” between values parts separate entries of the source, which are not always exact repeats. Equal entries are not always repeated.
What was measured:
[1] = biological target: T1, mouse RBPJ S358R, conserved core (residues 53-474) (mouse, UniProt P31266 53-474, S358R); assay: ITC; MicroCal VP-ITC, 25 °C, 50 mM sodium phosphate pH 6.5, 150 mM NaCl; ligand (RAM peptide or SMT3-SHARP) in the syringe, RBPJ in the cell: 100 µM into 10 µM (R91G), 50 µM into 5 µM (F92V), 40 µM into 4 µM (S358R); 20 injections of 14 µL; 1-site binding model; mean and SD of triplicates; settings: both partners purified
T1 construct: RBPJ (Rbpj), mouse, conserved core, residues 53-474, with S358R; Variant found in human AOS patients (human S332R), put into the mouse protein by mutagenesis; also called analogous to human S332R; source: pGEX-6P-1 plasmid, QuikChange mutagenesis

[2] = biological target: T2, mouse RBPJ F92V, conserved core (residues 53-474) (mouse, UniProt P31266 53-474, F92V); assay: as above; settings: both partners purified
T2 construct: RBPJ (Rbpj), mouse, conserved core, residues 53-474, with F92V; Variant found in human AOS patients (human F66V), put into the mouse protein by mutagenesis; also called analogous to human F66V; source: pGEX-6P-1 plasmid, QuikChange mutagenesis

[3] = biological target: T3, mouse RBPJ R91G, conserved core (residues 53-474) (mouse, UniProt P31266 53-474, R91G); assay: as above; settings: both partners purified
T3 construct: RBPJ (Rbpj), mouse, conserved core, residues 53-474, with R91G; Variant found in human AOS patients (human R65G), put into the mouse protein by mutagenesis; also called analogous to human R65G; source: pGEX-6P-1 plasmid, QuikChange mutagenesis

[4] = biological target: T4, RBPJ 53-474 (WT mouse RBPJ, conserved core) (mouse, UniProt P31266 53-474); assay: ITC; MicroCal VP-ITC; NOTCH1 peptide or SMT3-SHARP in the syringe (40-100 uM), RBPJ in the cell (4-10 uM); 25 C (298 K); 50 mM sodium phosphate pH 6.5, 150 mM NaCl; 20 injections of 14 uL; 1-site binding model; each of three replicates printed on its own; settings: both partners purified
T4 construct: RBPJ, mouse, conserved core (NTD, BTD, linker, CTD), residues 53-474; PDB 3BRG (RBPJ on DNA) was used for modelling only; also called WT RBPJ

RBPJ 53-474, R91G = biological target: T5, RBPJ 53-474, R91G (mouse, UniProt P31266 53-474, R91G); assay: as above; settings: both partners purified
T5 construct: RBPJ, mouse, conserved core, residues 53-474, with R91G (analogous to the human AOS variant R65G); AOS-associated human variant placed in the mouse protein; also called RBPJ^R91G (human R65G)

RBPJ 53-474, K195E [5] = biological target: T6, RBPJ 53-474, K195E (mouse, UniProt P31266 53-474, K195E); assay: as above; settings: both partners purified
T6 construct: RBPJ, mouse, conserved core, residues 53-474, with K195E (analogous to the human AOS variant K169E); AOS-associated human variant placed in the mouse protein; also called RBPJ^K195E (human K169E)

RBPJ 53-474, E89G [6] = biological target: T7, RBPJ 53-474, E89G (mouse, UniProt P31266 53-474, E89G); assay: as above; settings: both partners purified
T7 construct: RBPJ, mouse, conserved core, residues 53-474, with E89G (analogous to the human AOS variant E63G); AOS-associated human variant placed in the mouse protein; also called RBPJ^E89G (human E63G)

RBPJ 53-474, F92V [7] = biological target: T8, RBPJ 53-474, F92V (mouse, UniProt P31266 53-474, F92V); assay: as above; settings: both partners purified
T8 construct: RBPJ, mouse, conserved core, residues 53-474, with F92V (analogous to the human AOS variant F66V); AOS-associated human variant placed in the mouse protein; also called RBPJ^F92V (human F66V)

RBPJ 53-474, S358R [8] = biological target: T9, RBPJ 53-474, S358R (mouse, UniProt P31266 53-474, S358R); assay: as above; settings: both partners purified
T9 construct: RBPJ, mouse, conserved core, residues 53-474, with S358R (analogous to the human AOS variant S332R); AOS-associated human variant placed in the mouse protein; also called RBPJ^S358R (human S332R)

[9] = biological target: T4, RBPJ 53-474 (WT mouse RBPJ, conserved …); assay: as above; settings: both partners purified; remark: listed apart in the source
RBPJ 53-474, K195E [10] = biological target: T6, RBPJ 53-474, K195E; assay: as above; settings: both partners purified; remark: listed apart in the source
RBPJ 53-474, E89G [11] = biological target: T7, RBPJ 53-474, E89G; assay: as above; settings: both partners purified; remark: listed apart in the source
RBPJ 53-474, F92V [12] = biological target: T8, RBPJ 53-474, F92V; assay: as above; settings: both partners purified; remark: listed apart in the source
RBPJ 53-474, S358R [13] = biological target: T9, RBPJ 53-474, S358R; assay: as above; settings: both partners purified; remark: listed apart in the source
RBPJ R91G = RBPJ R91G (Mus musculus, UniProt P31266 53-474, R91G); assay: EMSA; 5, 25, 125 nM protein; ITC: 50 mM sodium phosphate pH 6.5, 150 mM NaCl, 10 C, DNA 100 uM in syringe, protein 10 uM in cell; EMSA: 20 min at room temperature, buffer as previously described (not given); settings: protein: recombinant; tags: GST-fusion vector pGEX-6P-1; label: 5' IRDye-700 on bottom strand; blunt; S3 primer annealed to S2 and filled in with DNA polymerase I
Chain of RBPJ R91G (P31266 53-474 R91G): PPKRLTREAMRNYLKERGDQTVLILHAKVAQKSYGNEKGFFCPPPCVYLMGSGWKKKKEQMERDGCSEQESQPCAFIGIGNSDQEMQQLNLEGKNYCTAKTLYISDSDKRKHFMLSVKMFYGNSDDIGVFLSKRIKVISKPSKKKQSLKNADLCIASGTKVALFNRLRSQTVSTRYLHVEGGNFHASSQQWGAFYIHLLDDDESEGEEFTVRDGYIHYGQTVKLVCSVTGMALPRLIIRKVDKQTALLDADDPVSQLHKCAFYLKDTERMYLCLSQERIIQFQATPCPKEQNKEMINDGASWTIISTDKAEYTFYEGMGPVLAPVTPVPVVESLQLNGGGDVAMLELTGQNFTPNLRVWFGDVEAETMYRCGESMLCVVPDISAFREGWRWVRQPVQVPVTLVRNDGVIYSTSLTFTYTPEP

T9 sequence (P31266 53-474 S358R): as the sequence (P31266 53-474 R91G) above, with G39R, S306R counted along it
T4 sequence (P31266 53-474): as the sequence (P31266 53-474 R91G) above, with G39R counted along it
T8 sequence (P31266 53-474 F92V): as the sequence (P31266 53-474 R91G) above, with G39R, F40V counted along it
T7 sequence (P31266 53-474 E89G): as the sequence (P31266 53-474 R91G) above, with E37G, G39R counted along it
T6 sequence (P31266 53-474 K195E): as the sequence (P31266 53-474 R91G) above, with G39R, K143E counted along it
T5 sequence (P31266 53-474 R91G): as the sequence (P31266 53-474 R91G) above
T1 sequence (P31266 53-474 S358R): as the sequence (P31266 53-474 R91G) above, with G39R, S306R counted along it
T2 sequence (P31266 53-474 F92V): as the sequence (P31266 53-474 R91G) above, with G39R, F40V counted along it
T3 sequence (P31266 53-474 R91G): as the sequence (P31266 53-474 R91G) above

B1: RBPJ association module (RAM) domain peptide of the human Notch1 intracellular domain, residues 1754-1781 (peptide)
peptide: VLLSRKRRRQHGQLWFPEGFKVSEASKK
notes: NOTCH1, human, RAM domain of the intracellular domain, residues 1754-1781; also called NICD; NICD1; source: synthetic peptide
- Kd [1]: 13.3 nM
- Kd [2]: 11.5 nM
- Kd [3]: 21.4 nM

B2: SMT3-SHARP 2776-2833, fusion protein with the region of the human SHARP co-repressor that binds RBPJ (domain or fragment, UniProt Q96T58 2776-2833, looked up)
chain: RASANENSRFHPGSMPVIDDRPADAGSGAGLRVNTSEGVVLLSYSGQKTEGPQRISAK
notes: SHARP (SPEN), human, residues 2776-2833; not shown: SMT3, N-terminal, kept
- Kd [1]: 7.9 nM
- Kd [2]: 10.3 nM

B3: human NOTCH1 peptide consisting of residues 1754-1781 (peptide, UniProt P46531 1754-1781, looked up)
peptide: VLLSRKRRRQHGQLWFPEGFKVSEASKK
notes: NOTCH1, human, RAM region, residues 1754-1781; also called hN1 RAM 1754-1781; NICD1
- Ka [4]: 5e+07 M⁻¹ (2×) and 4.4e+07 M⁻¹
- Kd [4]: 20 nM and 22 nM
- stoichiometry N [4]: 1.21 and 1.2 and 1.14
- Ka (RBPJ 53-474, R91G): 6.04e+07 M⁻¹ and 6.65e+07 M⁻¹ and 3.08e+07 M⁻¹
- Kd (RBPJ 53-474, R91G): 17 nM and 15 nM and 32 nM
- stoichiometry N (RBPJ 53-474, R91G): 1.06 and 1.03 and 0.92
- Ka (RBPJ 53-474, K195E [5]): 7.46e+07 M⁻¹ and 3.08e+07 M⁻¹ and 4.69e+07 M⁻¹
- Kd (RBPJ 53-474, K195E [5]): 13 nM and 32 nM and 21 nM
- stoichiometry N (RBPJ 53-474, K195E [5]): 1.33 and 1.2 and 1.23
- Ka (RBPJ 53-474, E89G [6]): 6.24e+07 M⁻¹ and 7.22e+07 M⁻¹ and 3.37e+07 M⁻¹
- Kd (RBPJ 53-474, E89G [6]): 16 nM and 14 nM and 30 nM
- stoichiometry N (RBPJ 53-474, E89G [6]): 0.84 and 0.73 and 1.32
- Ka (RBPJ 53-474, F92V [7]): 1.42e+08 M⁻¹ and 1.04e+08 M⁻¹ and 5.61e+07 M⁻¹
- Kd (RBPJ 53-474, F92V [7]): 7 nM and 10 nM and 18 nM
- stoichiometry N (RBPJ 53-474, F92V [7]): 0.85 and 0.75 and 0.63
- stoichiometry N (RBPJ 53-474, S358R [8]): 0.86 and 0.72 and 0.77

B4: SMT3-MINT 2776-2833 (human SHARP residues 2776-2833 with N-terminal SMT3 and His tag) (domain or fragment, UniProt Q96T58 2776-2833, looked up)
chain: B2 chain
notes: SHARP (MINT), human, residues 2776-2833; not shown: SMT3, N-terminal, kept
- stoichiometry N [9]: 1.2 and 1 and 1.06
- Kd (RBPJ 53-474, K195E [10]): 12 nM and 35 nM and 17 nM
- stoichiometry N (RBPJ 53-474, K195E [10]): 0.94 and 0.84 and 0.95
- stoichiometry N (RBPJ 53-474, E89G [11]): 1.37 and 1.34 and 1.15
- Ka (RBPJ 53-474, F92V [12]): 8.9e+07 M⁻¹ (2×) and 1.2e+08 M⁻¹
- Kd (RBPJ 53-474, F92V [12]): 11 nM and 11.3 nM and 9 nM
- stoichiometry N (RBPJ 53-474, F92V [12]): 1.17 and 1.09 and 1.12
- Ka (RBPJ 53-474, S358R [13]): 9.83e+07 M⁻¹ and 1.28e+08 M⁻¹ and 1.73e+08 M⁻¹
- Kd (RBPJ 53-474, S358R [13]): 10 nM and 7.8 nM and 6 nM
- stoichiometry N (RBPJ 53-474, S358R [13]): 0.89 and 1.02 and 1.08

B5: EMSA probe 1xCSL (1016ic) (dsDNA)
DNA 1: CGAACGAGGCAAACCTAGGCTAGAGGCACCGTGGGAAACTAGTGCGGGCGTGGCT
DNA 2: AGCCACGCCCGCACTAGTTTCCCACGGTGCCTCTAGCCTAGGTTTGCCTCGTTCG
- binding result (RBPJ R91G): no binding
